In US20210139581A1 (Alector, published 2021):
Residue numbers refer to the chain shown, from its start.

B1: AB-63.4 (antibody, V domains shown)
VH: QVQLVQSGAEVKKPGASVKVSCKASGYTFTDYNYHWVRQAPGQGLEWIGFIYPSNGITGYAQKFQGRVTMTVDTSTSTVYMELSSLRSEDTAVYYCARSTVDYFDYWGQGTLVTVSS
VL: DIVLTQSPDSLAVSLGERATINCRASQSVSTSTYSYMHWYQQKPGQPPKLLIKYASNLESGVPDRFSGSGSGTDFTLTISSLQAEDVAVYYCQHSWEIPLTFGQGTKLEIK
B2: AB-63.5 (antibody, V domains shown)
VH: B1 VH with Y34N, T100D
VL: B1 VL
B3: AB-63.6 (antibody, V domains shown)
VH: B1 VH with Y34L
VL: B1 VL with S28D
B4: AB-63.7 (antibody, V domains shown)
VH: B1 VH with Y34L
VL: B1 VL with S28D, S56F, T101E
B5: AB-63.8 (antibody, V domains shown)
VH: B1 VH with A16S, Y27V, G66D
VL: B1 VL with S28D
B6: AB-63.9 (antibody, V domains shown)
VH: B1 VH with T28A, Y34L, T100D
VL: B1 VL with S28D, N57Y, Q93E
B7: AB-63.10 (antibody, V domains shown)
VH: B1 VH with F29E, Y34L, T100D
VL: B1 VL with S28D, I98L
B8: AB-63.11 (antibody, V domains shown)
VH: B1 VH with Y34F, S54A, F64D, T100D
VL: B1 VL with S28D
B9: AB-63.12 (antibody, V domains shown)
VH: B1 VH with Y34F, Q65T, Y106D
VL: B1 VL with S28D, L58V, E97A
B10: AB-63.13 (antibody, V domains shown)
VH: B1 VH with Y34L, T58R, T100D
VL: B1 VL with W96E
B11: AB-63.14 (antibody, V domains shown)
VH: B1 VH with A16S, Y34L, T100D
VL: B1 VL with N22D, R24K, S28D
B12: AB-63.15 (antibody, V domains shown)
VH: B1 VH with T100D, Y106L
VL: B1 VL with S28D, L58V, K111E

What was measured:
[1] = biological target: T1, human CD33 (human, UniProt P20138 18-259, limits assumed); experiment: BLI (ForteBio), Fab 100 nM on immobilized CD33; kon/koff columns printed 3 rows too low, assigned by koff/kon = printed KD of AB-63.4
T1 construct: Human CD33 immobilized on the BLI sensor tip or the BIAcore C1 chip; also called Siglec-3
Method: (§1) The affinities (KD) of the humanized antibodies for human CD33 were measured for each antibody by BioLayer Interferometry in a ForteBio assay according to standard techniques (Estep et al. (2013) MAbs 5(2): 270-8). […] The assay was carried out at room temperature.
(§2) The affinities of AB-H14 and its affinity-matured variants (Table 15) and AB-H63 and its affinity-matured variants (Table 16), for human CD33 were measured by Fortebio assay according to the method described in Example 1 above.

[2] = biological target: T1, human CD33; experiment: BLI (ForteBio), Fab 100 nM on immobilized CD33
Method: as §1, §2

[3] = biological target: human CD33 on primary human monocyte-derived dendritic cells (human, UniProt P20138 18-364); experiment: cell-based or functional assay
[4] = biological target: T1, human CD33; experiment: BLI (ForteBio), Fab 100 nM on immobilized CD33; kon/koff columns printed 3 rows too low, assigned by koff/kon = printed KD of AB-63.5
Method: as §1, §2

[5] = biological target: T1, human CD33; experiment: BLI (ForteBio), Fab 100 nM on immobilized CD33; kon/koff columns printed 3 rows too low, assigned by koff/kon = printed KD of AB-63.6
Method: as §1, §2

[6] = biological target: T1, human CD33; experiment: BLI (ForteBio), Fab 100 nM on immobilized CD33; kon/koff columns printed 3 rows too low, assigned by koff/kon = printed KD of AB-63.7
Method: as §1, §2

[7] = biological target: T1, human CD33; experiment: BLI (ForteBio), Fab 100 nM on immobilized CD33; kon/koff columns printed 3 rows too low, assigned by koff/kon = printed KD of AB-63.8
Method: as §1, §2

[8] = biological target: T1, human CD33; experiment: BLI (ForteBio), Fab 100 nM on immobilized CD33; kon/koff columns printed 3 rows too low, assigned by koff/kon = printed KD of AB-63.9
Method: as §1, §2

[9] = biological target: T1, human CD33; experiment: BLI (ForteBio), Fab 100 nM on immobilized CD33; kon/koff columns printed 3 rows too low, assigned by koff/kon = printed KD of AB-63.10
Method: as §1, §2

[10] = biological target: T1, human CD33; experiment: BLI (ForteBio), Fab 100 nM on immobilized CD33; kon/koff columns printed 3 rows too low, assigned by koff/kon = printed KD of AB-63.11
Method: as §1, §2

[11] = biological target: T1, human CD33; experiment: BLI (ForteBio), Fab 100 nM on immobilized CD33; kon/koff columns printed 3 rows too low, assigned by koff/kon = printed KD of AB-63.12
Method: as §1, §2

[12] = biological target: T1, human CD33; experiment: BLI (ForteBio), Fab 100 nM on immobilized CD33; kon/koff columns printed 3 rows too low, assigned by koff/kon = printed KD of AB-63.13
Method: as §1, §2

[13] = biological target: T1, human CD33; experiment: BLI (ForteBio), Fab 100 nM on immobilized CD33; kon/koff columns printed 3 rows too low, assigned by koff/kon = printed KD of AB-63.14
Method: as §1, §2

[14] = biological target: T1, human CD33; experiment: BLI (ForteBio), Fab 100 nM on immobilized CD33; kon/koff columns printed 3 rows too low, assigned by koff/kon = printed KD of AB-63.15
Method: as §1, §2

T1 sequence (P20138 18-259 limits assumed): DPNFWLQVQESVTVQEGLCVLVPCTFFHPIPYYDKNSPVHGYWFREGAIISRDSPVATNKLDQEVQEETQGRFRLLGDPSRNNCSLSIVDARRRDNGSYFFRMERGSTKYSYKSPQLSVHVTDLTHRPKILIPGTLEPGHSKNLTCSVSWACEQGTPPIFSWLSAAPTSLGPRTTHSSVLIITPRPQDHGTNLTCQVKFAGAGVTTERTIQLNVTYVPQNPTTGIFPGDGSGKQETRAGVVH
Sequence of human CD33 on primary human monocyte-derived dendritic cells (P20138 18-364): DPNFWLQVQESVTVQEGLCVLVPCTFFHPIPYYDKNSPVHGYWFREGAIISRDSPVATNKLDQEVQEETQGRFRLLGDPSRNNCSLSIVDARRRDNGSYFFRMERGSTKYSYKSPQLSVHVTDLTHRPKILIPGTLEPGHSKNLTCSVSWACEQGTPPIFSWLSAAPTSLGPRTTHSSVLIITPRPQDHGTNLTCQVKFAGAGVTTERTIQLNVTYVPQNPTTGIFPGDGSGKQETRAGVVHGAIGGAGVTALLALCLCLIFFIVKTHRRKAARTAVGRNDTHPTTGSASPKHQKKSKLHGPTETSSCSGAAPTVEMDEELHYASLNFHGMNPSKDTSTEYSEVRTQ

Row | Binder | Fold affinity improvement over parental Ab (AB-H63) [2] [fold] | Kd [2] [nM] | Maximal Downregulation (% CD33 remaining) [3] [%] | Receptor downregulation (EC50) [3] [nM] | other results
1 | B1 | 3.79 | 0.718 | 17.6 | 0.0691 | koff [1]: 0.000581 s⁻¹; kon [1]: 809000 M⁻¹ s⁻¹
2 | B2 | 4.4 | 0.619 | 16.5 | 0.0401 | koff [4]: 0.000524 s⁻¹; kon [4]: 847000 M⁻¹ s⁻¹
3 | B3 | 8.96 | 0.304 | 17.1 | 0.0463 | koff [5]: 0.0002 s⁻¹; kon [5]: 658000 M⁻¹ s⁻¹
4 | B4 | 2.97 | 0.917 | 18.4 | 0.0416 | koff [6]: 0.000546 s⁻¹; kon [6]: 596000 M⁻¹ s⁻¹
5 | B5 | 12.4 | 0.219 | 22 | 0.0167 | koff [7]: 0.0002 s⁻¹; kon [7]: 913000 M⁻¹ s⁻¹
6 | B6 | 10.1 | 0.271 | 20.1 | 0.0407 | koff [8]: 0.0002 s⁻¹; kon [8]: 738000 M⁻¹ s⁻¹
7 | B7 | 5.84 | 0.466 | 21.2 | 0.0418 | koff [9]: 0.000336 s⁻¹; kon [9]: 721000 M⁻¹ s⁻¹
8 | B8 | 7.09 | 0.384 | 23 | 0.044 | koff [10]: 0.000322 s⁻¹; kon [10]: 839000 M⁻¹ s⁻¹
9 | B9 | 9.84 | 0.277 | 27.5 | 0.035 | koff [11]: 0.0002 s⁻¹; kon [11]: 723000 M⁻¹ s⁻¹
10 | B10 | 12.1 | 0.225 | 25.5 | 0.0448 | koff [12]: 0.00023 s⁻¹; kon [12]: 1.02e+06 M⁻¹ s⁻¹
11 | B11 | 11.2 | 0.244 | 25.3 | 0.0519 | koff [13]: 0.0002 s⁻¹; kon [13]: 819000 M⁻¹ s⁻¹
12 | B12 | 12.1 | 0.225 | 27.5 | 0.0476 | koff [14]: 0.000204 s⁻¹; kon [14]: 903000 M⁻¹ s⁻¹
